# Data from patent publication US20230272029A1, “CO-AGONISTS AT GLP-1 AND GIP RECEPTORS SUITABLE FOR ORAL DELIVERY” (Novo Nordisk A/S, priority 2020, published 2023).
# Starred links: 1 amine or outer side, 2 acyl side, 3 side chain; linkers in the order of their positions; H or OH if unused. Non-standard residues stand in square brackets, D forms with d. Groups on a side chain read outwards from the residue. No end group written: not given here. *: point of attachment. C18 diacid = O=C(O)CCCCCCCCCCCCCCCCC(=O)*; γGlu = O=C(O)[C@H](CCC(=O)[*:2])N[*:1]; εLys = N[C@@H](CCCCN[*:1])C(=O)[*:2]; Aib = CC(C)(N)C(=O)O
# T1: human GIP receptor (human, UniProt P48546 22-466)
# T1 sequence (looked up): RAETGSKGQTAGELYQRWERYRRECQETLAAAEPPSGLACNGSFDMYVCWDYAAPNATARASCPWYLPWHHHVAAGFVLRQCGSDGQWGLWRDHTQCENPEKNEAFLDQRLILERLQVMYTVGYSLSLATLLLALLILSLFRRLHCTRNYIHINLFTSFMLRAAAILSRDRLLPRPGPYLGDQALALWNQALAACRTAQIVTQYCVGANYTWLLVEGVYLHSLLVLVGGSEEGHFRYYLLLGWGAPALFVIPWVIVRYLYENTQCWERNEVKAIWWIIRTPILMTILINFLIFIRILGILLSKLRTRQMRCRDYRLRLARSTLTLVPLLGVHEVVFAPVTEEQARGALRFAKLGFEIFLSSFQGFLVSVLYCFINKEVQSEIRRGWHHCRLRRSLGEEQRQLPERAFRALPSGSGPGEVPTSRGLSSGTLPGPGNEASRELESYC
# B1: Compound No. 27 (peptide)
# peptide: Y[Aib]EGTFTSDYSILLEK([εLys-εLys-γGlu-C18 diacid])QAAREFIEWLLRGGPSSGAPPPS-OH
# modifications: N-terminus assumed
# SMILES: CC[C@H](C)[C@H](NC(=O)[C@H](Cc1ccccc1)NC(=O)[C@H](CCC(=O)O)NC(=O)[C@H](CCCNC(=N)N)NC(=O)[C@H](C)NC(=O)[C@H](C)NC(=O)[C@H](CCC(N)=O)NC(=O)[C@H](CCCCNC(=O)[C@@H](N)CCCCNC(=O)[C@@H](N)CCCCNC(=O)CC[C@H](NC(=O)CCCCCCCCCCCCCCCCC(=O)O)C(=O)O)NC(=O)[C@H](CCC(=O)O)NC(=O)[C@H](CC(C)C)NC(=O)[C@H](CC(C)C)NC(=O)[C@@H](NC(=O)[C@H](CO)NC(=O)[C@H](Cc1ccc(O)cc1)NC(=O)[C@H](CC(=O)O)NC(=O)[C@H](CO)NC(=O)[C@@H](NC(=O)[C@H](Cc1ccccc1)NC(=O)[C@@H](NC(=O)CNC(=O)[C@H](CCC(=O)O)NC(=O)C(C)(C)NC(=O)[C@@H](N)Cc1ccc(O)cc1)[C@@H](C)O)[C@@H](C)O)[C@@H](C)CC)C(=O)N[C@@H](CCC(=O)O)C(=O)N[C@@H](Cc1c[nH]c2ccccc12)C(=O)N[C@@H](CC(C)C)C(=O)N[C@@H](CC(C)C)C(=O)N[C@@H](CCCNC(=N)N)C(=O)NCC(=O)NCC(=O)N1CCC[C@H]1C(=O)N[C@@H](CO)C(=O)N[C@@H](CO)C(=O)NCC(=O)N[C@@H](C)C(=O)N1CCC[C@H]1C(=O)N1CCC[C@H]1C(=O)N1CCC[C@H]1C(=O)N[C@@H](CO)C(=O)O
# B2: Compound No. 28 (peptide)
# peptide: Y[Aib]EGTFTSDYSILLEK([εLys-εLys-γGlu-C18 diacid])QAAREFIEWLLRGGPESGAPPPS-OH
# modifications: N-terminus assumed
# SMILES: CC[C@H](C)[C@H](NC(=O)[C@H](Cc1ccccc1)NC(=O)[C@H](CCC(=O)O)NC(=O)[C@H](CCCNC(=N)N)NC(=O)[C@H](C)NC(=O)[C@H](C)NC(=O)[C@H](CCC(N)=O)NC(=O)[C@H](CCCCNC(=O)[C@@H](N)CCCCNC(=O)[C@@H](N)CCCCNC(=O)CC[C@H](NC(=O)CCCCCCCCCCCCCCCCC(=O)O)C(=O)O)NC(=O)[C@H](CCC(=O)O)NC(=O)[C@H](CC(C)C)NC(=O)[C@H](CC(C)C)NC(=O)[C@@H](NC(=O)[C@H](CO)NC(=O)[C@H](Cc1ccc(O)cc1)NC(=O)[C@H](CC(=O)O)NC(=O)[C@H](CO)NC(=O)[C@@H](NC(=O)[C@H](Cc1ccccc1)NC(=O)[C@@H](NC(=O)CNC(=O)[C@H](CCC(=O)O)NC(=O)C(C)(C)NC(=O)[C@@H](N)Cc1ccc(O)cc1)[C@@H](C)O)[C@@H](C)O)[C@@H](C)CC)C(=O)N[C@@H](CCC(=O)O)C(=O)N[C@@H](Cc1c[nH]c2ccccc12)C(=O)N[C@@H](CC(C)C)C(=O)N[C@@H](CC(C)C)C(=O)N[C@@H](CCCNC(=N)N)C(=O)NCC(=O)NCC(=O)N1CCC[C@H]1C(=O)N[C@@H](CCC(=O)O)C(=O)N[C@@H](CO)C(=O)NCC(=O)N[C@@H](C)C(=O)N1CCC[C@H]1C(=O)N1CCC[C@H]1C(=O)N1CCC[C@H]1C(=O)N[C@@H](CO)C(=O)O
# B3: Compound No. 26 (peptide)
# peptide: Y[Aib]EGTFTSDYSILLEK([εLys-εLys-γGlu-C18 diacid])QAAHEFINWLLAGGPSSGAPPPS-OH
# modifications: N-terminus assumed
# SMILES: CC[C@H](C)[C@H](NC(=O)[C@H](Cc1ccccc1)NC(=O)[C@H](CCC(=O)O)NC(=O)[C@H](Cc1c[nH]cn1)NC(=O)[C@H](C)NC(=O)[C@H](C)NC(=O)[C@H](CCC(N)=O)NC(=O)[C@H](CCCCNC(=O)[C@@H](N)CCCCNC(=O)[C@@H](N)CCCCNC(=O)CC[C@H](NC(=O)CCCCCCCCCCCCCCCCC(=O)O)C(=O)O)NC(=O)[C@H](CCC(=O)O)NC(=O)[C@H](CC(C)C)NC(=O)[C@H](CC(C)C)NC(=O)[C@@H](NC(=O)[C@H](CO)NC(=O)[C@H](Cc1ccc(O)cc1)NC(=O)[C@H](CC(=O)O)NC(=O)[C@H](CO)NC(=O)[C@@H](NC(=O)[C@H](Cc1ccccc1)NC(=O)[C@@H](NC(=O)CNC(=O)[C@H](CCC(=O)O)NC(=O)C(C)(C)NC(=O)[C@@H](N)Cc1ccc(O)cc1)[C@@H](C)O)[C@@H](C)O)[C@@H](C)CC)C(=O)N[C@@H](CC(N)=O)C(=O)N[C@@H](Cc1c[nH]c2ccccc12)C(=O)N[C@@H](CC(C)C)C(=O)N[C@@H](CC(C)C)C(=O)N[C@@H](C)C(=O)NCC(=O)NCC(=O)N1CCC[C@H]1C(=O)N[C@@H](CO)C(=O)N[C@@H](CO)C(=O)NCC(=O)N[C@@H](C)C(=O)N1CCC[C@H]1C(=O)N1CCC[C@H]1C(=O)N1CCC[C@H]1C(=O)N[C@@H](CO)C(=O)O
# B4: Compound No. 24 (peptide)
# peptide: Y[Aib]EGTFTSDYSILLEK([εLys-εLys-γGlu-C18 diacid])QAAQEFINWLLAGGPSSGAPPPS-OH
# modifications: N-terminus assumed
# SMILES: CC[C@H](C)[C@H](NC(=O)[C@H](Cc1ccccc1)NC(=O)[C@H](CCC(=O)O)NC(=O)[C@H](CCC(N)=O)NC(=O)[C@H](C)NC(=O)[C@H](C)NC(=O)[C@H](CCC(N)=O)NC(=O)[C@H](CCCCNC(=O)[C@@H](N)CCCCNC(=O)[C@@H](N)CCCCNC(=O)CC[C@H](NC(=O)CCCCCCCCCCCCCCCCC(=O)O)C(=O)O)NC(=O)[C@H](CCC(=O)O)NC(=O)[C@H](CC(C)C)NC(=O)[C@H](CC(C)C)NC(=O)[C@@H](NC(=O)[C@H](CO)NC(=O)[C@H](Cc1ccc(O)cc1)NC(=O)[C@H](CC(=O)O)NC(=O)[C@H](CO)NC(=O)[C@@H](NC(=O)[C@H](Cc1ccccc1)NC(=O)[C@@H](NC(=O)CNC(=O)[C@H](CCC(=O)O)NC(=O)C(C)(C)NC(=O)[C@@H](N)Cc1ccc(O)cc1)[C@@H](C)O)[C@@H](C)O)[C@@H](C)CC)C(=O)N[C@@H](CC(N)=O)C(=O)N[C@@H](Cc1c[nH]c2ccccc12)C(=O)N[C@@H](CC(C)C)C(=O)N[C@@H](CC(C)C)C(=O)N[C@@H](C)C(=O)NCC(=O)NCC(=O)N1CCC[C@H]1C(=O)N[C@@H](CO)C(=O)N[C@@H](CO)C(=O)NCC(=O)N[C@@H](C)C(=O)N1CCC[C@H]1C(=O)N1CCC[C@H]1C(=O)N1CCC[C@H]1C(=O)N[C@@H](CO)C(=O)O
# B5: Compound No. 25 (peptide)
# peptide: Y[Aib]EGTFTSDYSILLEK([εLys-εLys-γGlu-C18 diacid])QAAEEFINWLLAGGPSSGAPPPS-OH
# modifications: N-terminus assumed
# SMILES: CC[C@H](C)[C@H](NC(=O)[C@H](Cc1ccccc1)NC(=O)[C@H](CCC(=O)O)NC(=O)[C@H](CCC(=O)O)NC(=O)[C@H](C)NC(=O)[C@H](C)NC(=O)[C@H](CCC(N)=O)NC(=O)[C@H](CCCCNC(=O)[C@@H](N)CCCCNC(=O)[C@@H](N)CCCCNC(=O)CC[C@H](NC(=O)CCCCCCCCCCCCCCCCC(=O)O)C(=O)O)NC(=O)[C@H](CCC(=O)O)NC(=O)[C@H](CC(C)C)NC(=O)[C@H](CC(C)C)NC(=O)[C@@H](NC(=O)[C@H](CO)NC(=O)[C@H](Cc1ccc(O)cc1)NC(=O)[C@H](CC(=O)O)NC(=O)[C@H](CO)NC(=O)[C@@H](NC(=O)[C@H](Cc1ccccc1)NC(=O)[C@@H](NC(=O)CNC(=O)[C@H](CCC(=O)O)NC(=O)C(C)(C)NC(=O)[C@@H](N)Cc1ccc(O)cc1)[C@@H](C)O)[C@@H](C)O)[C@@H](C)CC)C(=O)N[C@@H](CC(N)=O)C(=O)N[C@@H](Cc1c[nH]c2ccccc12)C(=O)N[C@@H](CC(C)C)C(=O)N[C@@H](CC(C)C)C(=O)N[C@@H](C)C(=O)NCC(=O)NCC(=O)N1CCC[C@H]1C(=O)N[C@@H](CO)C(=O)N[C@@H](CO)C(=O)NCC(=O)N[C@@H](C)C(=O)N1CCC[C@H]1C(=O)N1CCC[C@H]1C(=O)N1CCC[C@H]1C(=O)N[C@@H](CO)C(=O)O
# B6: Compound No. 39 (peptide)
# peptide: Y[Aib]EGTFTSDYSILLEEQAARK([εLys-εLys-γGlu-C18 diacid])FINWLLAGGPSSGAPPPS-OH
# modifications: N-terminus assumed
# SMILES: CC[C@H](C)[C@H](NC(=O)[C@H](Cc1ccccc1)NC(=O)[C@H](CCCCNC(=O)[C@@H](N)CCCCNC(=O)[C@@H](N)CCCCNC(=O)CC[C@H](NC(=O)CCCCCCCCCCCCCCCCC(=O)O)C(=O)O)NC(=O)[C@H](CCCNC(=N)N)NC(=O)[C@H](C)NC(=O)[C@H](C)NC(=O)[C@H](CCC(N)=O)NC(=O)[C@H](CCC(=O)O)NC(=O)[C@H](CCC(=O)O)NC(=O)[C@H](CC(C)C)NC(=O)[C@H](CC(C)C)NC(=O)[C@@H](NC(=O)[C@H](CO)NC(=O)[C@H](Cc1ccc(O)cc1)NC(=O)[C@H](CC(=O)O)NC(=O)[C@H](CO)NC(=O)[C@@H](NC(=O)[C@H](Cc1ccccc1)NC(=O)[C@@H](NC(=O)CNC(=O)[C@H](CCC(=O)O)NC(=O)C(C)(C)NC(=O)[C@@H](N)Cc1ccc(O)cc1)[C@@H](C)O)[C@@H](C)O)[C@@H](C)CC)C(=O)N[C@@H](CC(N)=O)C(=O)N[C@@H](Cc1c[nH]c2ccccc12)C(=O)N[C@@H](CC(C)C)C(=O)N[C@@H](CC(C)C)C(=O)N[C@@H](C)C(=O)NCC(=O)NCC(=O)N1CCC[C@H]1C(=O)N[C@@H](CO)C(=O)N[C@@H](CO)C(=O)NCC(=O)N[C@@H](C)C(=O)N1CCC[C@H]1C(=O)N1CCC[C@H]1C(=O)N1CCC[C@H]1C(=O)N[C@@H](CO)C(=O)O
# How the values were obtained:
# human GIP receptor = target: T1, human GIP receptor; assay: cell-based or functional assay
# human GLP-1 receptor = human GLP-1 receptor (human, UniProt P43220 24-463); assay: cell-based or functional assay
Binder,"hGIPR, CRE Luc 0% HSA EC50 (pM) (human GIP receptor)","hGIPR, CRE Luc 1% HSA EC50 (pM) (human GIP receptor)","hGLP-1R, CRE Luc 0% HSA EC50 (pM) (human GLP-1 receptor)","hGLP-1R, CRE Luc 1% HSA EC50 (pM) (human GLP-1 receptor)"
B1,6.3,132,4.6,127
B2,6.6,86.5,6.2,139
B3,4.9,153,7.4,595
B4,3.9,115,12.1,490
B5,7.2,263,15.5,740
B6,28.4,365,8.2,135
